The results in this text go back to US20240132578A1.

What all share (assay): cell-based or functional assay
The target of assay [1] is HIV-1 Env of pseudovirus isolate 6535.3 (clade B) (HIV-1).
For assay [2], the target named is HIV-1 Env of isolate MGRM-G-011 (subtype G) (HIV-1).
Assay [3] addresses HIV-1 Env of pseudovirus isolate MGRM-Chronic-B-002 (clade B) (HIV-1).
Assay [4] deals with HIV-1 Env of isolate MG RM-A-013 (pseudovirus) (HIV-1).
In assay [5] the target is HIV-1 Env of isolate MGRM-G-004 (subtype G) (HIV-1).
Assay [6] deals with aMLV envelope (negative control pseudovirus) (aMLV).
Assay [7] has as its target HIV-1 Env of isolate 92UG001 (HIV-1).
Assay [8] has as its target HIV-1 Env of isolate MG RM-A-009 (pseudovirus) (HIV-1).
The target in assay [9] is HIV-1 Env of isolate MGRM-C-024 (subtype C), on pseudovirus (HIV-1).
The target in assay [10] is HIV-1 Env of pseudovirus MGRM-F1-018 (HIV-1).
The target of assay [11] is HIV-1 Env of pseudovirus MGRM-D-026 (HIV-1).
For assay [12], the target named is HIV-1 Env of pseudovirus MGRM-F1-022 (HIV-1).
Assay [13] addresses HIV-1 envelope glycoprotein (Env) of isolate MG RM-AG-006 (HIV-1).
Assay [14] concerns the target HIV-1 MGRM-D-001 envelope protein (Env) on pseudovirus (HIV-1).
The target in assay [15] is HIV-1 Env of isolate MGRM-Chronic-B-002 (HIV-1).
For assay [16], the target named is HIV-1 Env of isolate MGRM-AE-008 (subtype AE) (HIV-1).
Assay [17] has as its target HIV-1 92TH021 Env (HIV-1).
Assay [18] deals with HIV-1 Env of isolate MGRM-D-020 (pseudovirus) (HIV-1).
Assay [19] deals with HIV-1 Env of isolate MGRM-Chronic-B-008 (HIV-1).
For assay [20], the target named is HIV-1 JR-CSF Env T394A (HIV-1 (isolate JR-CSF)) (UniProt P20871).
Assay [21] concerns the target HIV-1 Env of isolate MGRM-D-013 (pseudovirus) (HIV-1).
The target of assay [22] is HIV-1 Env of isolate MGRM-A-007 (subtype A) (HIV-1).
Assay [23] has as its target HIV-1 Env of isolate MGRM-AG-013 (subtype AG) (HIV-1).
For assay [24], the target named is HIV-1 MGRM-A-010 Env (HIV-1).
For assay [25], the target named is HIV-1 MGRM-C-027 Env (HIV-1).
Assay [26] concerns the target HIV-1 Env of isolate MGRM-F1-004 (HIV-1).
Assay [27] has as its target HIV-1 Env of isolate MGRM-A-013 (subtype A) (HIV-1).
The target in assay [28] is HIV-1 94UG103 Env (HIV-1).
For assay [29], the target named is HIV-1 Env of isolate MGRM-D-014 (pseudovirus) (HIV-1).

Some results are limits rather than exact numbers.

Take 4995_P16 (PGT-145) (antibody): the IC50, pseudovirus neutralization in assay [1] was over 50 µg/mL; in assay [3], 3.67 µg/mL. Further, the IC50 (µg/mL), pseudovirus neutralization in [2] was 0.028 µg/mL; in assay [5], over 50 µg/mL; in [6], over 50 µg/mL; in [7], over 50 µg/mL. Moreover, the IC50 (µg/mL), single-round pseudovirus neutralization worked out at 1.76 µg/mL in [4] and 0.235 µg/mL in assay [8]. In assay [9], this substance yielded an IC50, single-round pseudovirus neutralization of 0.174 µg/mL.
4980_N08 (PGT-143) (antibody): the IC50, pseudovirus neutralization in assay [1] and in [3] was over 50 µg/mL each time. For the same substance, the IC50 (µg/mL), pseudovirus neutralization in assay [2] is 0.074 µg/mL; in [5] it was over 50 µg/mL; in [6] it was over 50 µg/mL; in [7], over 50 µg/mL. For the same substance, the IC50 (µg/mL), single-round pseudovirus neutralization in assay [4] was 9.24 µg/mL; in [8] it was 0.05 µg/mL. The IC50, single-round pseudovirus neutralization in assay [9] amounted to 0.05 µg/mL.
In the case of 4970_K22 (PGT-144) (antibody), the IC50, pseudovirus neutralization in [1] and in [3] was over 50 µg/mL in each case. For the same substance, the IC50 (µg/mL), pseudovirus neutralization in [2] was 1.58 µg/mL; in assay [5], over 50 µg/mL; in assay [6] it was over 50 µg/mL; in [7], over 50 µg/mL. The IC50 (µg/mL), single-round pseudovirus neutralization in assay [4] is over 50 µg/mL; in assay [8] it was 2.83 µg/mL. The substance further showed an IC50, single-round pseudovirus neutralization in assay [9] of 2.06 µg/mL.
What is called IC50 is the midpoint of a concentration-inhibition curve. Read a high IC50 as a need for much substance. As to PGT-141 (4964_G22; 4993_K13) (antibody), the IC50, pseudovirus neutralization in assay [10] came to 0.785 µg/mL; in assay [11], 32.5 µg/mL; in assay [12], 0.114 µg/mL. The IC50 in assay [13] was over 50 µg/mL.
Turning to VRC01 (antibody), the IC50, pseudovirus neutralization in assay [1] is 1.75 µg/mL; in [3] it was 0.117 µg/mL; in [10], 0.032 µg/mL; in assay [11], 0.435 µg/mL; in assay [12] it was 0.055 µg/mL. Also, the IC50 (µg/mL), pseudovirus neutralization was 0.065 µg/mL in assay [2], over 50 µg/mL in assay [5], over 50 µg/mL in assay [6] and 1.16 µg/mL in assay [7]. Also, the results for the IC50 (µg/mL), single-round pseudovirus neutralization in assay [4] and in assay [8] were 0.152 µg/mL and 0.118 µg/mL, respectively. In addition, the IC50, single-round pseudovirus neutralization in assay [9] is 3.4 µg/mL. The substance further showed an IC50 in assay [13] of 0.344 µg/mL.
In turn, 5147_N06 (PGT-130) (antibody) registered an IC50 (ug/mL), pseudovirus neutralization in [14] of over 10 µg/mL. Besides, the IC50 (µg/mL), pseudovirus neutralization in assay [15] is over 50 µg/mL; in [18], 24.7 µg/mL; in assay [19], 5.18 µg/mL; in [21], 0.429 µg/mL; in assay [26], 0.023 µg/mL; in assay [29] it was 0.061 µg/mL. Moreover, the IC50, pseudovirus neutralization in [16] was over 50 µg/mL; in [17], 0.0082 µg/mL; in [22], over 50 µg/mL; in [23], 0.01 µg/mL; in assay [24], 0.0054 µg/mL; in assay [25] it was 0.0052 µg/mL. The IC50, pseudovirus neutralization is over 50 µg/mL in assay [27] and 0.635 µg/mL in assay [28]. Also, the Fold IC50 increase relative to wild-type (pseudovirus neutralization) in assay [20] turned out to be 1.2 fold.
In the case of PGT-144 (4970_K22) (antibody), the IC50, pseudovirus neutralization was over 50 µg/mL in assay [10], over 50 µg/mL in assay [11] and 0.382 µg/mL in assay [12]. The same substance gave an IC50 in [13] of over 50 µg/mL.
4995_E20 (PGT-142) (antibody): the IC50, pseudovirus neutralization in assay [1] and in assay [3] was over 50 µg/mL throughout. For the same substance, the IC50 (µg/mL), pseudovirus neutralization was 0.046 µg/mL in assay [2], over 50 µg/mL in assay [5], over 50 µg/mL in [6] and over 50 µg/mL in [7]. For the same substance, the IC50 (µg/mL), single-round pseudovirus neutralization came out at 3.77 µg/mL in assay [4] and 0.058 µg/mL in assay [8]. In [9], the IC50, single-round pseudovirus neutralization is 0.03 µg/mL.
Turning to PGT-142 (4995_E20) (antibody), the IC50, pseudovirus neutralization in [10] came out at 0.404 µg/mL; in assay [11], 12.5 µg/mL; in assay [12], 0.04 µg/mL. The substance also showed an IC50 in assay [13] of over 50 µg/mL.
For 4993_K13 (PGT-141) (antibody), the IC50, pseudovirus neutralization in assay [1] and in [3] was over 50 µg/mL in each case. The IC50 (µg/mL), pseudovirus neutralization in assay [2] is 0.086 µg/mL; in [5], over 50 µg/mL; in [6], over 50 µg/mL; in assay [7], over 50 µg/mL. The IC50 (µg/mL), single-round pseudovirus neutralization in assay [4] stood at 9.86 µg/mL; in [8] it was 0.029 µg/mL. In [9], the IC50, single-round pseudovirus neutralization is 0.101 µg/mL.
PGT-143 (4980_N08) (antibody): the IC50, pseudovirus neutralization in assay [10] amounted to 0.701 µg/mL; in assay [11] it was 44.6 µg/mL; in [12], 0.082 µg/mL. The half-inhibitory concentration (IC50) in assay [13] is over 50 µg/mL.
PGT-145 (4995_P16) (antibody): the IC50, pseudovirus neutralization in assay [10] was 1.02 µg/mL; in [11], 0.41 µg/mL; in assay [12] it was 0.009 µg/mL. The substance also had an IC50 in assay [13] of 6.6 µg/mL.
